# Publication PMC8526979, “The predicted stem-loop structure in the 3′-end of the human norovirus antigenomic sequence is required for its genomic RNA synthesis by its RdRp” (The Journal of Biological Chemistry, 2021)
# Key:
# [1] = test system: His-RdRp (NS7, RNA-dependent RNA polymerase) (Human norovirus GII.P3_GII.3 U201 strain); experiment: competition; conditions: 50 mM Tris-HCl pH 7.4, 1.7% glycerol, 5 mM beta-mercaptoethanol, 0.5 ug/ul yeast RNA, 30 C 10 min, 20 ul; native PAGE at 4 C
# [2] = target: T1, HuNV RdRp (His-RdRp; GII.P3 RdRp) (Norwalk-like virus, UniProt Q8JXI4); experiment: RNA synthesis, dsRNA product after S1 nuclease, native PAGE with SYBR Green II; type: biochemical
# T1 construct: mature NS7 RdRp from ORF1 genome polyprotein, cDNA nt 3581-5113; N-terminal His6 tag (pET28b), E. coli ArcticExpress (DE3); 57 kDa by SDS-PAGE
Compound,binding signal (% complex remaining) [1],IC50 [2] [µM]
31AS RNA,47.3,
100AS RNA,13.5,
"C[C@@]1(O)[C@H](O)[C@@H](COP(=O)(O)OP(=O)(O)OP(=O)(O)O)O[C@H]1n1ccc(N)nc1=O [2′CM-CTP, 2′-C-methylcytidine triphosphate]",,57 ± 20
